The target in one assay is human GLP-1 receptor (human, UniProt P43220). Kind of assay: cell-based or functional assay.
The next assay has as its target human glucagon receptor (human, UniProt P47871). Nature of the assay: cell-based or functional assay.

Starred links: 1 amine or outer side, 2 acyl side, 3 side chain; linkers in the order of their positions; H or OH if unused. Non-standard residues stand in square brackets, D forms with d. Groups on a side chain read outwards from the residue. No end group written: not given here. *: point of attachment. C20 diacid = O=C(O)CCCCCCCCCCCCCCCCCCC(=O)*; C18 diacid = O=C(O)CCCCCCCCCCCCCCCCC(=O)*; γGlu = O=C(O)[C@H](CCC(=O)[*:2])N[*:1]; αMeF = C[C@](N)(Cc1ccccc1)C(=O)O; AEEA = NCCOCCOCC(=O)O; Aib = CC(C)(N)C(=O)O

B1: Peptide 139 (peptide)
peptide: H[Aib]QGTFTSDVSK[αMeF]LDSK([γGlu-γGlu-AEEA-AEEA-γGlu-γGlu-C20 diacid])RAQDFVRWLLE[Aib]G-OH
Take B1: the entries for the “cAMP production EC50” value with human GLP-1 receptor and in the assay with human glucagon receptor were 0.63 nM and 0.984 nM, respectively.

B2: Peptide 146 (peptide)
peptide: H[Aib]QGTFTSDVSK[αMeF]LDSK([AEEA-AEEA-γGlu-C18 diacid])RAQDFVRWLASR-OH
modifications: N-terminus assumed
SMILES: CC(C)C[C@H](NC(=O)[C@H](Cc1c[nH]c2ccccc12)NC(=O)[C@H](CCCNC(=N)N)NC(=O)[C@@H](NC(=O)[C@H](Cc1ccccc1)NC(=O)[C@H](CC(=O)O)NC(=O)[C@H](CCC(N)=O)NC(=O)[C@H](C)NC(=O)[C@H](CCCNC(=N)N)NC(=O)[C@H](CCCCNC(=O)COCCOCCNC(=O)COCCOCCNC(=O)CC[C@H](NC(=O)CCCCCCCCCCCCCCCCC(=O)O)C(=O)O)NC(=O)[C@H](CO)NC(=O)[C@H](CC(=O)O)NC(=O)[C@H](CC(C)C)NC(=O)[C@](C)(Cc1ccccc1)NC(=O)[C@H](CCCCN)NC(=O)[C@H](CO)NC(=O)[C@@H](NC(=O)[C@H](CC(=O)O)NC(=O)[C@H](CO)NC(=O)[C@@H](NC(=O)[C@H](Cc1ccccc1)NC(=O)[C@@H](NC(=O)CNC(=O)[C@H](CCC(N)=O)NC(=O)C(C)(C)NC(=O)[C@@H](N)Cc1c[nH]cn1)[C@@H](C)O)[C@@H](C)O)C(C)C)C(C)C)C(=O)N[C@@H](C)C(=O)N[C@@H](CO)C(=O)N[C@@H](CCCNC(=N)N)C(=O)O
Consider B2, for which the “cAMP production EC50” value is 0.0246 nM with human GLP-1 receptor and 1.63 nM with human glucagon receptor.

B3: Peptide 138 (peptide)
peptide: H[Aib]QGTFTSDVSK[αMeF]LDSK([γGlu-γGlu-AEEA-AEEA-γGlu-γGlu-C18 diacid])RAQDFVRWLLE[Aib]G-OH
modifications: N-terminus assumed
SMILES: CC(C)C[C@H](NC(=O)[C@H](Cc1c[nH]c2ccccc12)NC(=O)[C@H](CCCNC(=N)N)NC(=O)[C@@H](NC(=O)[C@H](Cc1ccccc1)NC(=O)[C@H](CC(=O)O)NC(=O)[C@H](CCC(N)=O)NC(=O)[C@H](C)NC(=O)[C@H](CCCNC(=N)N)NC(=O)[C@H](CCCCNC(=O)CC[C@H](NC(=O)CC[C@H](NC(=O)COCCOCCNC(=O)COCCOCCNC(=O)CC[C@H](NC(=O)CC[C@H](NC(=O)CCCCCCCCCCCCCCCCC(=O)O)C(=O)O)C(=O)O)C(=O)O)C(=O)O)NC(=O)[C@H](CO)NC(=O)[C@H](CC(=O)O)NC(=O)[C@H](CC(C)C)NC(=O)[C@](C)(Cc1ccccc1)NC(=O)[C@H](CCCCN)NC(=O)[C@H](CO)NC(=O)[C@@H](NC(=O)[C@H](CC(=O)O)NC(=O)[C@H](CO)NC(=O)[C@@H](NC(=O)[C@H](Cc1ccccc1)NC(=O)[C@@H](NC(=O)CNC(=O)[C@H](CCC(N)=O)NC(=O)C(C)(C)NC(=O)[C@@H](N)Cc1c[nH]cn1)[C@@H](C)O)[C@@H](C)O)C(C)C)C(C)C)C(=O)N[C@@H](CC(C)C)C(=O)N[C@@H](CCC(=O)O)C(=O)NC(C)(C)C(=O)NCC(=O)O
On to B3, for which the “cAMP production EC50” value in the assay with human GLP-1 receptor amounted to 0.104 nM; with human glucagon receptor it was 0.184 nM.

B4: Peptide 145 (peptide)
peptide: H[Aib]QGTFTSDVSK[αMeF]LDSK([AEEA-AEEA-γGlu-C18 diacid])RAQDFVRWLASRGI-OH
modifications: N-terminus assumed
SMILES: CC[C@H](C)[C@H](NC(=O)CNC(=O)[C@H](CCCNC(=N)N)NC(=O)[C@H](CO)NC(=O)[C@H](C)NC(=O)[C@H](CC(C)C)NC(=O)[C@H](Cc1c[nH]c2ccccc12)NC(=O)[C@H](CCCNC(=N)N)NC(=O)[C@@H](NC(=O)[C@H](Cc1ccccc1)NC(=O)[C@H](CC(=O)O)NC(=O)[C@H](CCC(N)=O)NC(=O)[C@H](C)NC(=O)[C@H](CCCNC(=N)N)NC(=O)[C@H](CCCCNC(=O)COCCOCCNC(=O)COCCOCCNC(=O)CC[C@H](NC(=O)CCCCCCCCCCCCCCCCC(=O)O)C(=O)O)NC(=O)[C@H](CO)NC(=O)[C@H](CC(=O)O)NC(=O)[C@H](CC(C)C)NC(=O)[C@](C)(Cc1ccccc1)NC(=O)[C@H](CCCCN)NC(=O)[C@H](CO)NC(=O)[C@@H](NC(=O)[C@H](CC(=O)O)NC(=O)[C@H](CO)NC(=O)[C@@H](NC(=O)[C@H](Cc1ccccc1)NC(=O)[C@@H](NC(=O)CNC(=O)[C@H](CCC(N)=O)NC(=O)C(C)(C)NC(=O)[C@@H](N)Cc1c[nH]cn1)[C@@H](C)O)[C@@H](C)O)C(C)C)C(C)C)C(=O)O
As for B4, the “cAMP production EC50” value worked out at 0.0226 nM with human GLP-1 receptor and 4.59 nM with human glucagon receptor.

B5: Peptide 143 (peptide)
peptide: H[Aib]QGTFTSDVSK[αMeF]LDSK([AEEA-AEEA-γGlu-C18 diacid])RARDFVQWLLE[Aib]G-OH
modifications: N-terminus assumed
SMILES: CC(C)C[C@H](NC(=O)[C@H](Cc1c[nH]c2ccccc12)NC(=O)[C@H](CCC(N)=O)NC(=O)[C@@H](NC(=O)[C@H](Cc1ccccc1)NC(=O)[C@H](CC(=O)O)NC(=O)[C@H](CCCNC(=N)N)NC(=O)[C@H](C)NC(=O)[C@H](CCCNC(=N)N)NC(=O)[C@H](CCCCNC(=O)COCCOCCNC(=O)COCCOCCNC(=O)CC[C@H](NC(=O)CCCCCCCCCCCCCCCCC(=O)O)C(=O)O)NC(=O)[C@H](CO)NC(=O)[C@H](CC(=O)O)NC(=O)[C@H](CC(C)C)NC(=O)[C@](C)(Cc1ccccc1)NC(=O)[C@H](CCCCN)NC(=O)[C@H](CO)NC(=O)[C@@H](NC(=O)[C@H](CC(=O)O)NC(=O)[C@H](CO)NC(=O)[C@@H](NC(=O)[C@H](Cc1ccccc1)NC(=O)[C@@H](NC(=O)CNC(=O)[C@H](CCC(N)=O)NC(=O)C(C)(C)NC(=O)[C@@H](N)Cc1c[nH]cn1)[C@@H](C)O)[C@@H](C)O)C(C)C)C(C)C)C(=O)N[C@@H](CC(C)C)C(=O)N[C@@H](CCC(=O)O)C(=O)NC(C)(C)C(=O)NCC(=O)O
Regarding B5, the “cAMP production EC50” value was 0.0191 nM in the assay with human GLP-1 receptor and 0.0326 nM with human glucagon receptor.

B6: Peptide 144 (peptide)
peptide: H[Aib]QGTFTSDVSK[αMeF]LDSK([γGlu-γGlu-AEEA-AEEA-γGlu-γGlu-C18 diacid])RARDFVRWLLE[Aib]G-OH
modifications: N-terminus assumed
SMILES: CC(C)C[C@H](NC(=O)[C@H](Cc1c[nH]c2ccccc12)NC(=O)[C@H](CCCNC(=N)N)NC(=O)[C@@H](NC(=O)[C@H](Cc1ccccc1)NC(=O)[C@H](CC(=O)O)NC(=O)[C@H](CCCNC(=N)N)NC(=O)[C@H](C)NC(=O)[C@H](CCCNC(=N)N)NC(=O)[C@H](CCCCNC(=O)CC[C@H](NC(=O)CC[C@H](NC(=O)COCCOCCNC(=O)COCCOCCNC(=O)CC[C@H](NC(=O)CC[C@H](NC(=O)CCCCCCCCCCCCCCCCC(=O)O)C(=O)O)C(=O)O)C(=O)O)C(=O)O)NC(=O)[C@H](CO)NC(=O)[C@H](CC(=O)O)NC(=O)[C@H](CC(C)C)NC(=O)[C@](C)(Cc1ccccc1)NC(=O)[C@H](CCCCN)NC(=O)[C@H](CO)NC(=O)[C@@H](NC(=O)[C@H](CC(=O)O)NC(=O)[C@H](CO)NC(=O)[C@@H](NC(=O)[C@H](Cc1ccccc1)NC(=O)[C@@H](NC(=O)CNC(=O)[C@H](CCC(N)=O)NC(=O)C(C)(C)NC(=O)[C@@H](N)Cc1c[nH]cn1)[C@@H](C)O)[C@@H](C)O)C(C)C)C(C)C)C(=O)N[C@@H](CC(C)C)C(=O)N[C@@H](CCC(=O)O)C(=O)NC(C)(C)C(=O)NCC(=O)O
B6: the “cAMP production EC50” value turned out to be 0.0452 nM with human GLP-1 receptor and 0.702 nM with human glucagon receptor.

B7: Peptide 142 (peptide)
peptide: H[Aib]QGTFTSDVSK[αMeF]LDSK([AEEA-AEEA-γGlu-C18 diacid])RARDFVAWLLE[Aib]G-OH
modifications: N-terminus assumed
SMILES: CC(C)C[C@H](NC(=O)[C@H](Cc1c[nH]c2ccccc12)NC(=O)[C@H](C)NC(=O)[C@@H](NC(=O)[C@H](Cc1ccccc1)NC(=O)[C@H](CC(=O)O)NC(=O)[C@H](CCCNC(=N)N)NC(=O)[C@H](C)NC(=O)[C@H](CCCNC(=N)N)NC(=O)[C@H](CCCCNC(=O)COCCOCCNC(=O)COCCOCCNC(=O)CC[C@H](NC(=O)CCCCCCCCCCCCCCCCC(=O)O)C(=O)O)NC(=O)[C@H](CO)NC(=O)[C@H](CC(=O)O)NC(=O)[C@H](CC(C)C)NC(=O)[C@](C)(Cc1ccccc1)NC(=O)[C@H](CCCCN)NC(=O)[C@H](CO)NC(=O)[C@@H](NC(=O)[C@H](CC(=O)O)NC(=O)[C@H](CO)NC(=O)[C@@H](NC(=O)[C@H](Cc1ccccc1)NC(=O)[C@@H](NC(=O)CNC(=O)[C@H](CCC(N)=O)NC(=O)C(C)(C)NC(=O)[C@@H](N)Cc1c[nH]cn1)[C@@H](C)O)[C@@H](C)O)C(C)C)C(C)C)C(=O)N[C@@H](CC(C)C)C(=O)N[C@@H](CCC(=O)O)C(=O)NC(C)(C)C(=O)NCC(=O)O
B7: the results for the “cAMP production EC50” value with human GLP-1 receptor and in the assay with human glucagon receptor were 0.0594 nM and 0.108 nM, respectively.

B8: Peptide 141 (peptide)
peptide: H[Aib]QGTFTSDVSK[αMeF]LDSK([AEEA-AEEA-γGlu-C18 diacid])RAQDFVAWLLE[Aib]G-OH
modifications: N-terminus assumed
SMILES: CC(C)C[C@H](NC(=O)[C@H](Cc1c[nH]c2ccccc12)NC(=O)[C@H](C)NC(=O)[C@@H](NC(=O)[C@H](Cc1ccccc1)NC(=O)[C@H](CC(=O)O)NC(=O)[C@H](CCC(N)=O)NC(=O)[C@H](C)NC(=O)[C@H](CCCNC(=N)N)NC(=O)[C@H](CCCCNC(=O)COCCOCCNC(=O)COCCOCCNC(=O)CC[C@H](NC(=O)CCCCCCCCCCCCCCCCC(=O)O)C(=O)O)NC(=O)[C@H](CO)NC(=O)[C@H](CC(=O)O)NC(=O)[C@H](CC(C)C)NC(=O)[C@](C)(Cc1ccccc1)NC(=O)[C@H](CCCCN)NC(=O)[C@H](CO)NC(=O)[C@@H](NC(=O)[C@H](CC(=O)O)NC(=O)[C@H](CO)NC(=O)[C@@H](NC(=O)[C@H](Cc1ccccc1)NC(=O)[C@@H](NC(=O)CNC(=O)[C@H](CCC(N)=O)NC(=O)C(C)(C)NC(=O)[C@@H](N)Cc1c[nH]cn1)[C@@H](C)O)[C@@H](C)O)C(C)C)C(C)C)C(=O)N[C@@H](CC(C)C)C(=O)N[C@@H](CCC(=O)O)C(=O)NC(C)(C)C(=O)NCC(=O)O
In the case of B8, the “cAMP production EC50” value worked out at 0.264 nM with human GLP-1 receptor and 0.392 nM with human glucagon receptor.

(Values after US12630600B2 (MEDIMMUNE LIMITED, priority 2022, dated 2026).)
